This assay has as its target T1, ATAD3A-HA, in vitro translated (UniProt Q9NVI7-2 1-586).
T1 construct: ATAD3A (ATPase family AAA domain-containing 3A); the truncation map of the ATAD3A-HA plasmids ends at residue 586, which fits the 586-residue isoform; read as C-terminal; also called ATAD3A-HA (pcDNA3.1 vector); source: in vitro translated (TnT quick coupled transcription/translation, Promega), then purified
T1 sequence (looked up): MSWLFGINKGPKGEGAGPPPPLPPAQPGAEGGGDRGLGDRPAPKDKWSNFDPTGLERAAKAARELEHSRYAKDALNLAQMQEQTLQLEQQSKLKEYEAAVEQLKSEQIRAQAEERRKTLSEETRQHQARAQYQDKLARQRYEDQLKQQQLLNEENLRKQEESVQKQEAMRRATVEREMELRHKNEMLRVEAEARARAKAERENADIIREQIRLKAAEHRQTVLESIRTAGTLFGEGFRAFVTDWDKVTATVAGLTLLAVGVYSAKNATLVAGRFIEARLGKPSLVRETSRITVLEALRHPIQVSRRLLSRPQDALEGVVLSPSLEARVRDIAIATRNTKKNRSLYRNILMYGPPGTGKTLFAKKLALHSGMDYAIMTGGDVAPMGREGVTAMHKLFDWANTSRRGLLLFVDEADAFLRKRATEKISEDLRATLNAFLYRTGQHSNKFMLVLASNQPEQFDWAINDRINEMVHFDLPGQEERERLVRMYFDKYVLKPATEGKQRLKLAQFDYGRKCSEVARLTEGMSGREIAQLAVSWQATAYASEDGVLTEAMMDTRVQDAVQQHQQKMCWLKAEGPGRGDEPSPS
In words: co-IP; P4HA2-FLAG and ATAD3A-HA made by TnT quick coupled transcription/translation (30 °C, 90 min), purified, then co-IP. As to conditions: both partners purified.

B1: P4HA2-FLAG, in vitro translated (natural protein, UniProt O15460 1-535, looked up)
chain: MKLWVSALLMAWFGVLSCVQAEFFTSIGHMTDLIYAEKELVQSLKEYILVEEAKLSKIKSWANKMEALTSKSAADAEGYLAHPVNAYKLVKRLNTDWPALEDLVLQDSAAGFIANLSVQRQFFPTDEDEIGAAKALMRLQDTYRLDPGTISRGELPGTKYQAMLSVDDCFGMGRSAYNEGDYYHTVLWMEQVLKQLDAGEEATTTKSQVLDYLSYAVFQLGDLHRALELTRRLLSLDPSHERAGGNLRYFEQLLEEEREKTLTNQTEAELATPEGIYERPVDYLPERDVYESLCRGEGVKLTPRRQKRLFCRYHHGNRAPQLLIAPFKEEDEWDSPHIVRYYDVMSDEEIERIKEIAKPKLARATVRDPKTGVLTVASYRVSKSSWLEEDDDPVVARVNRRMQHITGLTVKTAELLQVANYGVGGQYEPHFDFSRNDERDTFKHLGTGNRVATFLNYMSDVEAGGATVFPDLGAAIWPKKGTAVFWYNLLRSGEGDYRTRHAACPVLVGCKWVSNKWFHERGQEFLRPCGSTEVD
notes: P4HA2 (Prolyl-4-Hydroxylase Alpha Subunit 2); read as C-terminal; also called P4HA2-FLAG (pcDNA3.1 vector); source: in vitro translated (TnT quick coupled transcription/translation, Promega), then purified
Consider B1, for which the binding result is listed as “binds”.

The record behind these values is PMC12501296, “P4HA2 interacted with ATAD3A to modulate PINK1/parkin-dependent mitophagy and ^125I brachytherapy sensitization in esophageal carcinoma” (Cell Death & Disease, 2025).
